Reference: patent publication US20170306037A1 (Novartis, published 2017)

T1: NGFR (human, UniProt P08138)
T1 sequence (receptor, looked up): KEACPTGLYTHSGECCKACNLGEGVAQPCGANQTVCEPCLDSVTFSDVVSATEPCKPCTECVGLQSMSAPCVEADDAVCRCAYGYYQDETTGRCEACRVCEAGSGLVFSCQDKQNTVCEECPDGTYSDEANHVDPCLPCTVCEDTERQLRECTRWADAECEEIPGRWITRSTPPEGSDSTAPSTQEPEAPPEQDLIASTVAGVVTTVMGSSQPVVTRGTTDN

T2: DcR2 (human, UniProt Q9UBN6)
T2 sequence (receptor, looked up): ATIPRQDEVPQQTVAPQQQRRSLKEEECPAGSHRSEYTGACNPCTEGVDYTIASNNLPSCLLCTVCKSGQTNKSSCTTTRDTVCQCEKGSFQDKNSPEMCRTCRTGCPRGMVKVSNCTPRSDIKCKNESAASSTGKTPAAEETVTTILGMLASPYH

T3: HVEM (human, UniProt Q92956)
T3 sequence (receptor, looked up): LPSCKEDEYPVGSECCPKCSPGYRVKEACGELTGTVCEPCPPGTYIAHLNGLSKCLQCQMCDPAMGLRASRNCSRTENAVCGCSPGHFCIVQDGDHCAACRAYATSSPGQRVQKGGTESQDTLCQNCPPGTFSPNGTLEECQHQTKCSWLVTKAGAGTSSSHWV

T4: OX40 (human, UniProt P43489)
T4 sequence (receptor, looked up): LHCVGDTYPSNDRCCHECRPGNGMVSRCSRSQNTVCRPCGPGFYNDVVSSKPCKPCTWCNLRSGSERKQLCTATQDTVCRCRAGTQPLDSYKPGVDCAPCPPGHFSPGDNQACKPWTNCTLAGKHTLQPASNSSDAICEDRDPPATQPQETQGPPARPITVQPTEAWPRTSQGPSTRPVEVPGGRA

T5: DcR3 (human, UniProt O95407)
T5 sequence (receptor, looked up): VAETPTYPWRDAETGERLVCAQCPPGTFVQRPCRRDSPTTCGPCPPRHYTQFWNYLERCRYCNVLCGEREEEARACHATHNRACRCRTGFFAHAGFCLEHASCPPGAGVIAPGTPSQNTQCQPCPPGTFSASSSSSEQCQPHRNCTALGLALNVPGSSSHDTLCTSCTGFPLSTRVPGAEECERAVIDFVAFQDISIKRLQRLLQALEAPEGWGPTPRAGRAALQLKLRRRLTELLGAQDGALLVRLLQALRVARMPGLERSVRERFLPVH

T6: DR3 (human, UniProt Q93038)
T6 sequence (receptor, looked up): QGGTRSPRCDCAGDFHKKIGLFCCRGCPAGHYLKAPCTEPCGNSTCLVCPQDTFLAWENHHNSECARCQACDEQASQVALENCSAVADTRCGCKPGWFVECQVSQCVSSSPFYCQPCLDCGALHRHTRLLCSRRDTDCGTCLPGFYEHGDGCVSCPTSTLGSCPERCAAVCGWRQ

T7: BAFFR (human, UniProt Q96RJ3)
T7 sequence (receptor, looked up): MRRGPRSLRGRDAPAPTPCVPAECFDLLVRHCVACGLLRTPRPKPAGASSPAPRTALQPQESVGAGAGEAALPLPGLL

T8: BCMA (human, UniProt Q02223)
T8 sequence (receptor, looked up): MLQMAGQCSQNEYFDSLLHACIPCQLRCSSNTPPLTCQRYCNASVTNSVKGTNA

T9: TNFR1 (human, UniProt P19438)
T9 sequence (receptor, looked up): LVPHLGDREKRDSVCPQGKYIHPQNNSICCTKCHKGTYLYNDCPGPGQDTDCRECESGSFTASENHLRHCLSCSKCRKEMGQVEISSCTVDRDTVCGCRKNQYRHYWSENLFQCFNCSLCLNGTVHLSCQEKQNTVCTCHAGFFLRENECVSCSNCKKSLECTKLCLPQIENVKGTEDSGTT

T10: human GITR (hGITR), form not stated (human, UniProt Q9Y5U5 26-162, limits assumed)
T10 construct: the construct is not described
T10 sequence: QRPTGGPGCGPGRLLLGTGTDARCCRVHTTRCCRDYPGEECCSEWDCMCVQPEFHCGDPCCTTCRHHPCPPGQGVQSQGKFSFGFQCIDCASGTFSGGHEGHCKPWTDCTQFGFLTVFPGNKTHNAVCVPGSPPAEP

B1: MAB4 (IgG1 kappa) (antibody, V domains shown)
VH: EVQLVESGGGLVQSGGSLRLSCAASGFSLSSYGVDWVRQAPGKGLEWVGVIWGGGGTYYASSLMGRFTISRDNSKNTLYLQMNSLRAEDTAVYYCAKHAYGHDGGFAMDYWGQGTLVTVSS
VL: EIVMTQSPATLSVSPGERATLSCRASESVSSNVAWYQQRPGQAPRLLIYGASNRATGIPARFSGSGSGTDFTLTISRLEPEDFAVYYCGQSYSYPFTFGQGTKLEIKR
B2: MAB5 (IgG1 kappa) (antibody, V domains shown)
VH: EVQLVESGGGLVQSGGSLRLSCAASGFSLSSYGVDWVRQAPGKGLEWLGVIWGGGGTYYTSSLMGRFTISRDNSKNTLYLQMNSLRAEDTAVYYCAKHAYGHDGGFAMDYWGQGTLVTVSS
VL: EIVMTQSPATLSVSPGERATLSCRASESVSSNVAWYQQRPGQAPRLLIYGASNRATGIPARFSGSGSGTDFTLTISRLEPEDFAVYYCGQSYSYPFTFGQGTKLEIKR
notes: also called MABS (misprint of MAB5)

Key:
[1] = biological target: T1, NGFR; assay: specificity ELISA, bacterial lysate on HisGrab nickel plate
Experimental: (§1) For the specificity ELISA, a crude cell lysate was made from bacteria expressing members of the TNFRSF family. To prevent nonspecific binding to the plate 50 μL of 5% BSA was added per mL of bacterial lysate. […] The plate was then rinsed three times with PBST, then MAB was diluted to 0.5 μg/mL in 10% FBS in PBS and 100 μL was added to each well. The plate was incubated for 1 hour at room temperature and then rinsed three times with PBST. Anti-human kappa antibody (Sigma #A7164) conjugated to HRP was diluted 1:5000 in 1:1 PBST: 10% FBS in PBS and 100 μL added to each well. The plate was incubated for 1 hour at room temperature, and then washed three times with PBST. 100 μL of SureBlue TMB substrate was added to each well and the plate was incubated for about 10 min at room temperature before stopping the reaction with 100 μL /well of 2N H₂SO₄.

[2] = biological target: T2, DcR2; assay: as above
Experimental: as §1

[3] = biological target: T3, HVEM; assay: as above
Experimental: as §1

[4] = biological target: T4, OX40; assay: as above
Experimental: as §1

[5] = biological target: CD40 (human, UniProt P25942); assay: as above
Sequence of CD40 (P25942 21-193 limits assumed): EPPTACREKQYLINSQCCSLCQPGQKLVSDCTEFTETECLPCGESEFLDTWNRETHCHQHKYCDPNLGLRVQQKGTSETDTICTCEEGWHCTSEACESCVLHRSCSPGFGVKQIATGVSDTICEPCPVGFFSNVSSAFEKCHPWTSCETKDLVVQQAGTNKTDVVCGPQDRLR
Experimental: as §1

[6] = biological target: DR5 (human, UniProt O14763); assay: as above
Experimental: as §1

[7] = biological target: T5, DcR3; assay: as above
Experimental: as §1

[8] = biological target: T6, DR3; assay: as above
Experimental: as §1

[9] = biological target: T7, BAFFR; assay: as above
Experimental: as §1

[10] = biological target: T8, BCMA; assay: as above
Experimental: as §1

[11] = biological target: T9, TNFR1; assay: as above
Experimental: as §1

[12] = biological target: T10, human GITR (hGITR), form not stated; assay: Biacore (SPR), IgG
[13] = biological target: cyno GITR (cGITR), form not stated (cynomolgus monkey); assay: Biacore (SPR), IgG

| Binder | binding result [1] | binding result [2] | binding result [3] | binding result [4] | binding result [5] | binding result [6] | binding result [7] | binding result [8] | binding result [9] | binding result [10] | binding result [11] | Kd [12] | Kd [13] |
| --- | --- | --- | --- | --- | --- | --- | --- | --- | --- | --- | --- | --- | --- |
| B1 | no binding (tested: not on the sheet; paragraph 335: 0.5 µg/mL) | no binding (tested: not on the sheet; paragraph 335: 0.5 µg/mL) | no binding (tested: not on the sheet; paragraph 335: 0.5 µg/mL) | no binding (tested: not on the sheet; paragraph 335: 0.5 µg/mL) | no binding (tested: not on the sheet; paragraph 335: 0.5 µg/mL) | no binding (tested: not on the sheet; paragraph 335: 0.5 µg/mL) | no binding (tested: not on the sheet; paragraph 335: 0.5 µg/mL) | no binding (tested: not on the sheet; paragraph 335: 0.5 µg/mL) | no binding (tested: not on the sheet; paragraph 335: 0.5 µg/mL) | no binding (tested: not on the sheet; paragraph 335: 0.5 µg/mL) | no binding (tested: not on the sheet; paragraph 335: 0.5 µg/mL) | 0.684 nM | 1.78 nM |
| B2 | no binding (tested: not on the sheet; paragraph 335: 0.5 µg/mL) | no binding (tested: not on the sheet; paragraph 335: 0.5 µg/mL) | no binding (tested: not on the sheet; paragraph 335: 0.5 µg/mL) | no binding (tested: not on the sheet; paragraph 335: 0.5 µg/mL) | no binding (tested: not on the sheet; paragraph 335: 0.5 µg/mL) | no binding (tested: not on the sheet; paragraph 335: 0.5 µg/mL) | no binding (tested: not on the sheet; paragraph 335: 0.5 µg/mL) | no binding (tested: not on the sheet; paragraph 335: 0.5 µg/mL) | no binding (tested: not on the sheet; paragraph 335: 0.5 µg/mL) | no binding (tested: not on the sheet; paragraph 335: 0.5 µg/mL) | no binding (tested: not on the sheet; paragraph 335: 0.5 µg/mL) | 0.973 nM | 1.87 nM |
